This is an account of results in patent publication CN112794898A (YIKANG BIOLOGY SUZHOU CO LTD, dated 2021).

The test concerns the target SARS-CoV2 S蛋白受体结合域(RBD) (SARS-CoV2, UniProt P0DTC2 319-541).

B1: 单克隆抗体YK-CoV2-02的Fab (Fab, V domains shown)
VH: QVQLVESGGGLIQPGGSLRLSCAVSGFTVSSNYMSWVRQAPGKGLEWVSVIYPGGSTFYADSVKGRFTISRDNDNSKNTLYLQMNSLRAEDTAVYYCARDWVRGSNWGQGTLVTVSS
VL: EIVLTQSPATLSLSPGERATLSCRASQSVSNYLAWYQQKPGQAPRLLIYDASNRATGIPARFSGSGSGTDFTLTISSLEPEDFAVYYCQERSNWPSGTFGPGTKVDIK
As a reminder, the Kd is a measure of binding affinity in units of concentration. B1 had a Kd of 4.03 nM.
